Experimental data as given in the supplement of paper PMC9170038.

Test system: MS2 coat protein
Test: apparent KD of MS2 coat protein; designed switch direction (-1 OFF switch, 1 ON switch): 1; higher = weaker reporter binding
Procedure, shortened: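 Designed RNA switches with common flanks were transcribed on Illumina chips by stalled E. coli RNA polymerase and titrated with SNAP-549-labelled MS2 coat protein, from 0.7 or 1.5 nM doubling to 3 µM, in Tris-HCl pH 7.5 buffer with KCl, MgCl2, BSA, DTT, tRNA and Tween-20. Steps lasted 0.8–1.5 h (lowest) to 10–20 min (highest). Titrations ran without input, with 200 uM small-molecule ligand, or with an oligonucleotide input. Normalised cluster fluorescence was curve-fitted, and apparent KD is the per-design median over clusters.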

[1] = input ligand: microRNA oligo, concentration not stated
[2] = Eterna round: R95, input ligand: FMN 200 uM
[3] = Eterna round: R95, input ligand: microRNA oligo, concentration not stated
[4] = Eterna round: R95, input ligand: none

## UUAAUAAUGUAAGGAUAUACAUGAGGAUUUCUCGUAGAAGGUACAGGACAUGAGGAUCACCCAUGUAUCGCUCGAAAGAGCGUA [Mat - Same State NG 1 - JL mod - D25] (Eterna round: R96, puzzle: Same State NG 1)
Input ligand: FMN 200 uM
  apparent KD of MS2 coat protein: 521 nM
[1]
  apparent KD of MS2 coat protein: 217 nM
Input ligand: none
  apparent KD of MS2 coat protein: 1130 nM

## AGUCCUGAAAAGAAAAUAAAGAGAGAUGUACAUGAGGAUCACCCAUGUCAUGUACAAGUUCUAUGCUCGUCAUAUAA [Sensorship 23 - Jieux - Sensor for hsa-mir-208a] (puzzle: Sensor for hsa-mir-208a)
[2]
  apparent KD of MS2 coat protein: 913 nM
[3]
  apparent KD of MS2 coat protein: 113 nM
[4]
  apparent KD of MS2 coat protein: 1430 nM

## GUAAUCGUUAUAGGAUAUCAUGAGGAUUACCCAUGAGAAGGGUGAUUCCGAUCCAUAUUCAGAAAAUGAAUGUGGAUAGAUUGC [Omei NG1 A v1] (Eterna round: R96, puzzle: Same State NG 1)
Input ligand: FMN 200 uM
  apparent KD of MS2 coat protein: 123 nM
[1]
  apparent KD of MS2 coat protein: 117 nM
Input ligand: none
  apparent KD of MS2 coat protein: 260 nM

## GUGGUCAGACAUGAGGAUCACCCAUGUGGAAUAAAUAAGGCAUAGGAUAUAAAAUAUAGGAUAUAUUAGAAGGAUGGGUUGGUG (Eterna round: R96, puzzle: Same State NG 3)
Input ligand: FMN 200 uM
  apparent KD of MS2 coat protein: 145 nM
[1]
  apparent KD of MS2 coat protein: 83.7 nM
Input ligand: none
  apparent KD of MS2 coat protein: 144 nM

## AUUAUGAAUGCAGGAUAUGAUUAACAUGAGGAUCACCCAUGUGGUGUUGUGAGUAAGGAGAGUGAUCAGAAGGGCAUUUUUUUU [JMF's solution 25] (Eterna round: R96, puzzle: Same State NG 2)
[1]
  apparent KD of MS2 coat protein: 465 nM

## GUGUGUUGCGGGCAGGAUAUGUAUUUGAGUACAUGAGGAUCACCCAUGUGCGCCUGUUUCAGGCGACAGAAGGGCCUAUCGCGAC [JL-ss2-3.27 ViennaUCT mod] (puzzle: Same State 2)
[3]
  apparent KD of MS2 coat protein: 106 nM

## AGCGGAUAACAGUAGGAUAUGGCCAACGCCACAUGAGGAUCACCCAUGUCGUACCGGCACCUGGACUAGAAGGACUGCCUCCCGC [Ariscedi] (puzzle: Same State 2)
[3]
  apparent KD of MS2 coat protein: 22.8 nM

## GGAGAGAAGUGAGGAUAUGCAUGGAAGACACAUGAGGAUCACCCAUGUGGGAGGGAAACCGGGAGGUAGAAGGCACUGGGAAGA [AK SSNG2-V2-25] (Eterna round: R96, puzzle: Same State NG 2)
Input ligand: FMN 200 uM
  apparent KD of MS2 coat protein: 83.7 nM
[1]
  apparent KD of MS2 coat protein: 24.1 nM
Input ligand: none
  apparent KD of MS2 coat protein: 107 nM

## UCUGCAAGAACAGGAUAUGGGUUCAGAGCGCGAGUGCGCUUUGACACAUGAGGAUCACCCAUGUCCCAGAAGGGUUCAAGCGGC [Cexezadi] (Eterna round: R96, puzzle: Same State NG 2)
Input ligand: FMN 200 uM
  apparent KD of MS2 coat protein: 30 nM
[1]
  apparent KD of MS2 coat protein: 321 nM
Input ligand: none
  apparent KD of MS2 coat protein: 385 nM

## UCUUGGUUUUUGCUCGUUUUUUGUGUUGAACAUGAGGAUCACCCAUGUAUUGUACGGUCCAGUUUGGUAAUGGUCCG [JMF 35] (puzzle: Sensor for hsa-mir-208a)
[2]
  apparent KD of MS2 coat protein: 25 nM
[3]
  apparent KD of MS2 coat protein: 14.9 nM
[4]
  apparent KD of MS2 coat protein: 26.4 nM

## UAGAGAGGAAGCGAGGAUAUCGUGUUAGGUACAUGAGGAUCACCCAUGUUUUAGGUAGAGGUAGGCGAGAAGGCGCAGGAGAGGA [JR_SS2_Sub091] (puzzle: Same State 2)
[2]
  apparent KD of MS2 coat protein: 24.9 nM
[3]
  apparent KD of MS2 coat protein: 29.2 nM
[4]
  apparent KD of MS2 coat protein: 24.4 nM

## AAUUGUUCCUGAGGAUAUCAGUAGUUUGCUUUUUGAGAAGGCAGUACAUGAGGAUCACCCAUGUUGUGGUUUGAUAGAAUGAUA [JR_SSNG1_Sub005] (Eterna round: R96, puzzle: Same State NG 1)
Input ligand: FMN 200 uM
  apparent KD of MS2 coat protein: 184 nM
[1]
  apparent KD of MS2 coat protein: 101 nM
Input ligand: none
  apparent KD of MS2 coat protein: 180 nM

## GGUCCAGCCUGAGCUGGACAAAAGCAUGUACAUGAGGAUCACCCAUGUUCAUGUACAAGCUUUUUGCUCGUCUUAGU [salish99_208a_r3_069] (puzzle: Sensor for hsa-mir-208a)
[2]
  apparent KD of MS2 coat protein: 536 nM
[3]
  apparent KD of MS2 coat protein: 16.3 nM
[4]
  apparent KD of MS2 coat protein: 730 nM

## AGUCAAGACAUGAGGAUCACCCAUGUUGGGAACAUGGAGGACGAGGAUAUGUGUCGAUAUGUGACGUAGAAGGCGUCAGACAAA [Eternabot solution 33] (Eterna round: R96, puzzle: Same State NG 3)
Input ligand: FMN 200 uM
  apparent KD of MS2 coat protein: 189 nM
[1]
  apparent KD of MS2 coat protein: 224 nM
Input ligand: none
  apparent KD of MS2 coat protein: 419 nM

## AUUUGGUAACGAGGAUAUCGUUUUUGUUUUCUUCGAGAAGGCGUUAUUGUUUAUUUCUAUUGUUACAUGAGGAUCACCCAUGUU [JR_SSNG1_Sub056] (Eterna round: R96, puzzle: Same State NG 1)
Input ligand: FMN 200 uM
  apparent KD of MS2 coat protein: 15.4 nM
[1]
  apparent KD of MS2 coat protein: 19 nM
Input ligand: none
  apparent KD of MS2 coat protein: 21.7 nM

## AUUAAACAUGAGGAUCACCCAUGUCAACAAAGUCGAGGAUAUGGGCUAAUAAAAUAAGAACCAGAAGGCGAAUAAU [salish99_ss1_r3_062] (puzzle: Same State 1)
[2]
  apparent KD of MS2 coat protein: 26.8 nM
[3]
  apparent KD of MS2 coat protein: 185 nM
[4]
  apparent KD of MS2 coat protein: 211 nM

## AUGCAGCCACCACAGGAUAUACGUGGAUCGACAUGAGGAUCACCCAUGUAUAUCCUAAUAAUUGCGUAGAAGGGUGGUCGGCUGG [Anatxeage] (puzzle: Same State 2)
[3]
  apparent KD of MS2 coat protein: 362 nM

## UAAAGAUAGCGAGGAUAUCGCGAGGAUCACCCGUGAGAAGGCGCAGAGCCGAGGAUCACCCGGCUGAUCCUGAGGAGGAGGUCA (Eterna round: R96, puzzle: Same State NG 1)
Input ligand: FMN 200 uM
  apparent KD of MS2 coat protein: 108 nM
[1]
  apparent KD of MS2 coat protein: 197 nM
Input ligand: none
  apparent KD of MS2 coat protein: 249 nM

## CGUUCACAUGAGGAUCACCCAUGUCAGAUUUGGUCAGGAUAUGGUCGGCUUCCGCUAUUGCCAGAAGGGACUGUUG [JR_SS001_Sub705] (Eterna round: R96, puzzle: Same State 1)
Input ligand: FMN 200 uM
  apparent KD of MS2 coat protein: 24.3 nM
[1]
  apparent KD of MS2 coat protein: 28.8 nM
Input ligand: none
  apparent KD of MS2 coat protein: 35.2 nM

## AACUAACAUGAGGAUCACCCAUGUUGCAGCGGUUGAGGAUAUGUGGGUGAAAAUAGCAUGGCAGAAGGCGAGUGUA [SameState1 Malc#25] (Eterna round: R96, puzzle: Same State 1)
Input ligand: FMN 200 uM
  apparent KD of MS2 coat protein: 407 nM
[1]
  apparent KD of MS2 coat protein: 95.9 nM
Input ligand: none
  apparent KD of MS2 coat protein: 208 nM

## UUUGCAUGACGAGGAUAUCAUUUAUUUCUUGAUUGAGAAGGCGUUCUUUUUACUACCUAACAUGAGGAUCACCCAUGUGACAGU [JR_SSNG1_Sub048] (Eterna round: R96, puzzle: Same State NG 1)
[1]
  apparent KD of MS2 coat protein: 11.3 nM

## GGAAGGAGGUCAGGAUAUGAAUGGAAAGUACAUGAGGAUCACCCAUGUUAUGGAGGAAGGAAACGUUAGAAGGGAUAAGGAAGG [AK SSNG2-V2-2] (Eterna round: R96, puzzle: Same State NG 2)
Input ligand: FMN 200 uM
  apparent KD of MS2 coat protein: 32 nM
[1]
  apparent KD of MS2 coat protein: 26.8 nM
Input ligand: none
  apparent KD of MS2 coat protein: 41.5 nM

## UGCGGAUAACAGUAGGAUAUGGUCAACGCCACAUGAGGAUCACCCAUGUCGUACCGGCACCUGGACUAGAAGGACUGCCUCCCGC [Esleberi] (puzzle: Same State 2)
[2]
  apparent KD of MS2 coat protein: 11.6 nM
[3]
  apparent KD of MS2 coat protein: 26.4 nM
[4]
  apparent KD of MS2 coat protein: 38 nM

## UUAUAACAUGAGGAUCACCCAUGUCAACAAAGUCGAGGAUAUGGGCAAGAAUUGAGAGAACCAGAAGGCGAAUAUU [Mat - Same State 1 - Mod of UCT - D31] (puzzle: Same State 1)
[2]
  apparent KD of MS2 coat protein: 78.4 nM
[3]
  apparent KD of MS2 coat protein: 131 nM
[4]
  apparent KD of MS2 coat protein: 148 nM

## UAGUACAUGCUUUUUGUCCGUCUUAGAUAACAUGAGGAUCACCCAUGUAAGGUGAAAGUUAUAUAGUUUAGGAAUAU [JR_SHM208A_Sub057] (puzzle: Sensor for hsa-mir-208a)
[2]
  apparent KD of MS2 coat protein: 136 nM
[3]
  apparent KD of MS2 coat protein: 323 nM
[4]
  apparent KD of MS2 coat protein: 178 nM

## AACCAGGCCAGAGGAUAUGGGAAAGGAAGUGUACUAGAAGGCUGCAGCCUGAACAAACAUGAGGAUCACCCAUGUAAAACGGUG [PowerStrip SSNG 1.27] (Eterna round: R96, puzzle: Same State NG 1)
Input ligand: FMN 200 uM
  apparent KD of MS2 coat protein: 296 nM
[1]
  apparent KD of MS2 coat protein: 150 nM
Input ligand: none
  apparent KD of MS2 coat protein: 304 nM

## GGGCCACAUGAGGAUCACCCAUGUGGAGCUAGUGCACGGUCACAGGAUAUCUCGUGGGCGUAUAGGGAGAAGGGUGAUUCAUUA [Eternabot solution 18] (Eterna round: R96, puzzle: Same State NG 3)
Input ligand: FMN 200 uM
  apparent KD of MS2 coat protein: 47.2 nM
[1]
  apparent KD of MS2 coat protein: 51.3 nM
Input ligand: none
  apparent KD of MS2 coat protein: 52.3 nM

## UUAAAACAUGAGGAUCACCCAUGUCAACAAAGUCGAGGAUAUGGGCAAUUAUUAUUAGAACCAGAAGGCGAAUAUU [Mat - Same State 1 - Mod of UCT - D28] (puzzle: Same State 1)
[2]
  apparent KD of MS2 coat protein: 27.1 nM
[3]
  apparent KD of MS2 coat protein: 260 nM
[4]
  apparent KD of MS2 coat protein: 289 nM

## GCUCGUGGUAUUGUCUACAUGAGGAUCACCCAUGUAGGUGCGGAGGAUAUCUACGUGUCUCAUGUAGAGAAGGUCGUCACGAGC [SameState NG3 #99] (Eterna round: R96, puzzle: Same State NG 3)
Input ligand: FMN 200 uM
  apparent KD of MS2 coat protein: 61.2 nM
[1]
  apparent KD of MS2 coat protein: 174 nM
Input ligand: none
  apparent KD of MS2 coat protein: 38.7 nM

## UGUUGUAUUACAGGAUAUCUAUUAUUUUUAGUUAGAGAAGGGUAUUCACAUGAGGAUCACCCAUGUAUAUACGAGGAAGUUGUG [JMF's solution 26] (Eterna round: R96, puzzle: Same State NG 1)
[1]
  apparent KD of MS2 coat protein: 35.7 nM

## AAAGCACAUGAGGAUCACCCAUGUGGAAAUAACACAGGAUAUCCGGCCGAAACUAAGGUGGGAGAAGGGUGACCUA [Aeriste] (puzzle: Same State 1)
[2]
  apparent KD of MS2 coat protein: 191 nM
[3]
  apparent KD of MS2 coat protein: 40.2 nM
[4]
  apparent KD of MS2 coat protein: 73.5 nM

## AUAAGUUUGAUGCUCGUCUCUCCGUACUAACAUGAGGAUCACCCAUGUGGUCGGGAAGUAGCCCGGCCAGUAUGGCC [Lequteti] (puzzle: Sensor for hsa-mir-208a)
[2]
  apparent KD of MS2 coat protein: 19.5 nM
[3]
  apparent KD of MS2 coat protein: 19.4 nM
[4]
  apparent KD of MS2 coat protein: 19.3 nM
